Results on two molecules are retold here after paper PMC11162469, “Discovery of RXFP2 genetic association in resistant hypertensive men and RXFP2 antagonists for the treatment of resistant hypertension” (Scientific Reports, 2024).

The target of one data set is human RXFP2 (Homo sapiens, UniProt Q8WXD0). In words: INSL3-stimulated cAMP assay in HEK293 stably expressing human RXFP2. The settings on record: read-out: HEK293-human RXFP2 cAMP IC50; INSL3 EC80-stimulated cAMP, stable expression; N = 2. On the technique in general: Changes in cAMP serve as a functional read-out for many G protein-coupled receptors.
Sequence of human RXFP2 (Q8WXD0 whole entry): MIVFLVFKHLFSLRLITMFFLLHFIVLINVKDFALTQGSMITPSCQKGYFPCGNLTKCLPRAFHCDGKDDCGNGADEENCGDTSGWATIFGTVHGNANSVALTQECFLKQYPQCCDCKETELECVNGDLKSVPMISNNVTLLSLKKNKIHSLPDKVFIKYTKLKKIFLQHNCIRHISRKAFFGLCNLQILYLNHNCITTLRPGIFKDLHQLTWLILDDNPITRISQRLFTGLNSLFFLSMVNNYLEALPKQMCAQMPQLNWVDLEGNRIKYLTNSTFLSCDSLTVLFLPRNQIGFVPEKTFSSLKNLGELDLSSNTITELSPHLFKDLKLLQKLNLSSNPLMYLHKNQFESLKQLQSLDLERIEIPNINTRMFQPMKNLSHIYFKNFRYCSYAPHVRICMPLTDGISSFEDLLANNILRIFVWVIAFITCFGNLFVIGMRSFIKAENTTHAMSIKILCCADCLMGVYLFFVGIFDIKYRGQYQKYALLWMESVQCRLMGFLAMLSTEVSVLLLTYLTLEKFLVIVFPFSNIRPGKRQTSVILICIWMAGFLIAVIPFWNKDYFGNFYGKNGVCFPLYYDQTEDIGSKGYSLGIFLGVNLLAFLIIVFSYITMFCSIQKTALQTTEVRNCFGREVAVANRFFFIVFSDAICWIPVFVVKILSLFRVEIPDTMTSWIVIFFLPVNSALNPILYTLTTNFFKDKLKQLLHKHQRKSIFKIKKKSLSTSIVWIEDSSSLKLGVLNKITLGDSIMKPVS
Data set [1] deals with T1, rat RXFP2 (Rattus norvegicus, UniProt F7EMH8). Briefly: INSL3-stimulated cAMP assay in HEK293 stably expressing rat RXFP2.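 For all read-outs here: cAMP measured with an HitHunter kit in 384-well plates, 11-point dose–response curves up to 1 µM antibody, four-parameter variable-slope fit.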 The settings on record: INSL3 EC80-stimulated cAMP, stable expression, N = 2; for IC50: read-out: HEK293-rat RXFP2 cAMP IC50.
T1 sequence (F7EMH8 20-737): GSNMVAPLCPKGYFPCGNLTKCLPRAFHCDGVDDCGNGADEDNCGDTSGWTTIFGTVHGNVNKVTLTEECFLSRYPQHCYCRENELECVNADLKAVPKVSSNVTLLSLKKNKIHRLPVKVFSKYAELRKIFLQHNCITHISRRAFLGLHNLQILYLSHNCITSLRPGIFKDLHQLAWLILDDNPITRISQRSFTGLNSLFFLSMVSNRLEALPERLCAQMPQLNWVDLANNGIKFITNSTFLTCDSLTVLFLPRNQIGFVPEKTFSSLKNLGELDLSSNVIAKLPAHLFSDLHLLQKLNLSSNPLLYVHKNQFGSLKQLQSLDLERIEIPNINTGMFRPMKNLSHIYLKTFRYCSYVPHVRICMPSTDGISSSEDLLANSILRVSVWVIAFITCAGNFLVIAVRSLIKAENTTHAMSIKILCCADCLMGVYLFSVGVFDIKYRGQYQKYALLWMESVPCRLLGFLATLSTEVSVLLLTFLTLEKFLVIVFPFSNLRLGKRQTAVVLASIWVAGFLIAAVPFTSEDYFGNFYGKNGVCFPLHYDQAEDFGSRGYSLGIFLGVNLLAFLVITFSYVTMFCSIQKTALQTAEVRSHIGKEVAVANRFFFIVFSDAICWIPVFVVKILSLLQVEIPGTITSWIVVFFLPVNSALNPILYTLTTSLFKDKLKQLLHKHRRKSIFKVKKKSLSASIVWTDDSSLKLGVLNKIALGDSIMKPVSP
Data set [2] addresses T1, rat RXFP2. In words: INSL3-stimulated CYP11B2 mRNA expression in H295R stably expressing rat RXFP2. The class given is cell-based. Details: expressed in transfected cells. The settings on record: INSL3 EC80 (3.5 nM), 48 h, qPCR; N = 2. On the procedure: (§1) RXFP2 antagonists were added to H295R-rRXFP2 before addition of INSL3 EC80 (3.5 nM) for 48 h, whereupon the cells and supernatants were collected. CYP11B1 and CYP11B2 mRNA were determined by qPCR and the RXFP2 blocker potencies were calculated (Fig. 5a). Fifteen antibodies have IC50s < 50 nM, and three of the top antibodies (1F2, 4G6, and 2D4) were selected for evaluation in steroid hormone secretion assays by ELISA.
(§2) Data entered as XY table, with x = [Inhibitor] (nM) and y = CYP11B2 or CYP11B1 fold change.
Background: In qPCR the cycle at which signal appears reflects the starting amount.

Data set [3] concerns the target T1, rat RXFP2. Briefly: INSL3-stimulated CYP11B1 mRNA expression in H295R stably expressing rat RXFP2. The settings on record: INSL3 EC80 (3.5 nM), 48 h, qPCR; N = 2. Details: expressed in transfected cells. The data set is classed as cell-based. How it is done:
as §1, §2

Data set [4] deals with T1, rat RXFP2. Briefly: Cortisol secretion (ELISA) in H295R stably expressing rat RXFP2. Details: expressed in transfected cells. The data set is classed as cell-based. As to conditions: H295R-rRXFP2, 3.5 nM INSL3, 48 h, read-out: IC50 on INSL3-induced cortisol release. How it is done:
as §1
The day after seeding, H295R cells were treated and incubated for 48 h before supernatants and cell lysates were collected. Treatments included INSL3, IgG, 1F2, and 4G6 at 0.035 pM–3.5 µM, 2D4 at 0.01 nM–1 uM, or phosphate buffered saline control. In RXFP2 antagonist assays, 3.5 nM INSL3 was used as the stimulus. Cortisol present in the adrenal cell supernatant at 48 h post treatment was detected by ELISA (R&D KGE008B). Sample dilution was optimized at 1/90 using a standard curve. Aldosterone was below the limit of detection by ELISA (R&D KGE016) and required liquid–liquid extraction (LLE) twice using methyl tetra butyl ether. Post extraction samples were dried (SPE Nitrogen dryer) and reconstituted for ELISA analysis. All samples were run in duplicates.
For orientation: In an ELISA, binding on a coated surface is turned into a signal by an enzyme label.

Data set [5] in a line: Pharmacokinetic study of RXFP2 mAbs in rat. The data set is classed as in vivo, Wistar Han rats. How it is done:
For the pharmacokinetic study of RXFP2 mAbs in rat, 1G1, 2D4, 4B1, 4G6, 1F2, and 3F3 were prepared in phosphate buffered saline (0.100 mg/mL) with low endotoxin (≤ 0.76 EU/mL). Adult male Wistar Han rats (n = 3/mAb) were administered 1 mg/kg subcutaneously (10 mL/kg). Blood samples (100 µL) were collected in EDTA containing tubes at 0.25, 3, 6 24, 48, 96, 168 (day 7), 336 (day 14), 504 (day 21), and 672 (day 28) hours post dose, immediately centrifuged (6100 rpm), and 50 µL plasma stored at − 80 °C until assay. Rats maintained health throughout the study and were anesthetized (isoflurane to effect) and euthanized on day 28.
Frozen rat plasma samples were thawed and analyzed using a qualified analytical method based on sample dilution, followed by Electrochemiluminescence immunoassay analysis. The lower limit of quantification (LLQ) was 0.1 µg/mL using a 10 µL aliquot of 51-fold diluted rat plasma with a higher limit of quantification (HLQ) of 10 µg/mL. RXFP2 mAbs were captured with LDLa protein and detected with sulfo-tag labeled mouse anti-rat IgG2b. The computer systems that were used to acquire and quantify data included Gyrolab Workstation Version 8.1.5 and Watson LIMS version 7.6.1. Rat pharmacokinetic parameters were calculated by non-compartmental analysis (NCA) analysis using WinNonlin Phoenix 64 (version 8.3). Values are reported in mean ± standard deviation.

The mark [6] stands for this setting: male Wistar Han rats, 1 mg/kg s.c., n = 3, mean ± SD.

Numbering of substitutions follows the chain as printed.

Protocol for human RXFP2: RXFP activity assays were developed in HEK293 with stable expression of RXFP2 or RXFP1.
The same approach was used to generate stable HEK293 lines expressing human and rat RXFP1 and RXFP2 cDNA. The cAMP assay was conducted using the Eurofin Hithunter kit per manufacturer’s instructions in a 384-well format. All dose curve fitting and EC50 and IC50 determinations were performed in Prism (v9.3.0) using the non-linear fit, variable slope (four parameter) function.

B1: 1F2: RXFP2 monoclonal antibody from hybridoma, recombinantly expressed in a rat IgG2b backbone (antibody, V domains shown)
VH: QVQLKQSGPGLVQPSQSLSITCTVSGFSLTAYGVNWVRQSPGKGLEWLGVIWSGGNTDYNAPFISRLSITKDNSKSQVFFKMNSLEADDTAIYYCARAKGYYAMDYWGQGTSVTVSS
VL: DIQMTQSPASLSVSVGESVTITCRATENIYSNLVWYQQKQGQSPQLLVYAVTSLADGVPSRFSGSGSGTQYSLKINSLQSEDFGTYYCQHFWGTPYTFGGGTKLEIK
Consider B1, for which the IC50 (as a rule, the concentration that gives 50% inhibition) with human RXFP2 was around 405 nM; in the data set with rat RXFP2 [1], 19.1 nM; with rat RXFP2 [2], 0.1 nM; with rat RXFP2 [3], 0.32 nM; with rat RXFP2 [4], 0.21 nM. The “HEK293-rat RXFP2 cAMP % Max Response” value with rat RXFP2 [1] is 76.1%. Moreover, the “half-life, extrapolated values” in data set [5] (Wistar Han rats, 1 mg/kg sc., over 28 days) was at least 264 h. Also, in data set [5] (from trough concentration, dose-linearity assumed), the “estimated dose to achieve tenfold higher IC50 HEK-rRXFP2 cAMP activity for approximately 28 days in rat” value was “approximately 10 mg/kg”. Moreover, in data set [5] (setting [6]), the AUClast was found to be 3530 ± 746 µg·h/mL. Moreover, in data set [5] (setting [6]), the Cmax (as a rule, the highest concentration seen after dosing) was 7860 ± 1750 ng/mL. Further, the Tmax (usually the time at which the peak concentration occurs) in data set [5] (setting [6]) is 120 ± 42 h.

B2: 4B8: RXFP2 monoclonal antibody from hybridoma, recombinantly expressed in a rat IgG2b backbone (antibody, V domains shown)
VH: QVQLKQSGPGLVQPSQSLSITCTVSGFSLSRYGVHWVRQSPGKGLEWLGVIWSGGSTEYNAVFKSRLSISKDNSKSQVFFKMNSLQANDTAIYYCVRADGYYAMEYWGQGTSVTVSS
VL: B1 VL with S18T, T26S, V34A, Q42K, S53N, T85N
For B2, the IC50 with human RXFP2 is around 116 nM; with rat RXFP2 [1], 21.4 nM; with rat RXFP2 [2], 0.17 nM; with rat RXFP2 [3], 0.23 nM. For the same molecule, in the data set with rat RXFP2 [1], the “HEK293-rat RXFP2 cAMP % Max Response” value is recorded as 86.6%.
